B1: Recombinant his-tagged FL-Hst4 (pET28a) (natural protein, S. pombe, UniProt Q9UR39 1-415, looked up)
chain: MKVEEHVPLIQESRKRKCQSSENASKRQQLLSKLPLRLHTGNENVDLSPLVSAIRKAKRIVVVTGAGISCDAGIPDFRSSEGLFSSLRAEYKLNCSGKELFDGSVYRDLKSVNIFHAMIRKLHMLSNNARPTDFHLFLSQLAQESKLLRLYTQNIDFLETRLEGLQTCIPLPQSAPWPTTIPLHGTLEVVSCTRCSFLKKFNPDIFDRNGVTVCPDCKTENEVRRIAGKRSVIEGCLRPRIVLYNEIHPDSESIGSVCSQDLKSRPDCLIVAGTSCKIPGVKRIIKEMSNCVHKQKGNVIWLNYDEPTKDFLNLCDLVVQGDLQIAIRRLKPLLDAPSWKLKSHSAKRTSKQKSSEQTKITSSTKITKAIGLNTKSNDSSKKDNTSFQLHQVLNSIEIPKVEIKQEVEYATPSPL

What all share (assay): pull-down
One experiment deals with Swi1-3FLAG (S. pombe, UniProt Q9UUM2 1-971).
Sequence of Swi1-3FLAG (Q9UUM2 whole entry): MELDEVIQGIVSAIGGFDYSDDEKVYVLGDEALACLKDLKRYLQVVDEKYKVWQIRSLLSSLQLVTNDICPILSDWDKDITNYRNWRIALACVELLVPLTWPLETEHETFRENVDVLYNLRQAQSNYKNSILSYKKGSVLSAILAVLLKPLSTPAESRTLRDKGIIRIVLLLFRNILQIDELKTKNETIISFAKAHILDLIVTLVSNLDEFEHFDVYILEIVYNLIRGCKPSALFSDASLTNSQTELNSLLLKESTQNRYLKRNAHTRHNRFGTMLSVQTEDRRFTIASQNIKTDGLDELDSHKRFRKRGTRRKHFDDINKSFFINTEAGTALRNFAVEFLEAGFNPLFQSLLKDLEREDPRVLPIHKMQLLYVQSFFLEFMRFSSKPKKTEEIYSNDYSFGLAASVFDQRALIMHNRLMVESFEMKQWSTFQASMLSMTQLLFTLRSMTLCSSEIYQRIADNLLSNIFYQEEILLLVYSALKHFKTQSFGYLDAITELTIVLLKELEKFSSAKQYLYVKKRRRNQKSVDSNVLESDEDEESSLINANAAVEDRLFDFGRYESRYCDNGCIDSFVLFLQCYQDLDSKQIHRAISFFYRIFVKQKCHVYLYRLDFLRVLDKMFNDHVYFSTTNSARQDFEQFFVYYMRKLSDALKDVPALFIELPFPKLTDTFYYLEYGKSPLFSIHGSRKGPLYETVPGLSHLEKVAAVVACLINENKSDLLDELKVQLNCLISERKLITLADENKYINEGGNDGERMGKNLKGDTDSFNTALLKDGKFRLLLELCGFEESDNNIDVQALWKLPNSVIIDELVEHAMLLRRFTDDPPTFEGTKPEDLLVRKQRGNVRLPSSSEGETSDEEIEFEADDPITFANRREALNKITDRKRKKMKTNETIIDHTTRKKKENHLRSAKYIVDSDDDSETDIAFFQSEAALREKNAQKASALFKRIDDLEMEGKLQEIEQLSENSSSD
Experiment [1] addresses DDK (Hsk1-HA with Dfp1-myc) (S. pombe, UniProt P50582 1-507; O59836 1-545).
For experiment [2], the target named is B1.

The source of these data is paper PMC8565929 (eLife, 2021).

Sequence of DDK (Hsk1-HA with Dfp1-myc) (P50582 whole entry, chain 1 of 2): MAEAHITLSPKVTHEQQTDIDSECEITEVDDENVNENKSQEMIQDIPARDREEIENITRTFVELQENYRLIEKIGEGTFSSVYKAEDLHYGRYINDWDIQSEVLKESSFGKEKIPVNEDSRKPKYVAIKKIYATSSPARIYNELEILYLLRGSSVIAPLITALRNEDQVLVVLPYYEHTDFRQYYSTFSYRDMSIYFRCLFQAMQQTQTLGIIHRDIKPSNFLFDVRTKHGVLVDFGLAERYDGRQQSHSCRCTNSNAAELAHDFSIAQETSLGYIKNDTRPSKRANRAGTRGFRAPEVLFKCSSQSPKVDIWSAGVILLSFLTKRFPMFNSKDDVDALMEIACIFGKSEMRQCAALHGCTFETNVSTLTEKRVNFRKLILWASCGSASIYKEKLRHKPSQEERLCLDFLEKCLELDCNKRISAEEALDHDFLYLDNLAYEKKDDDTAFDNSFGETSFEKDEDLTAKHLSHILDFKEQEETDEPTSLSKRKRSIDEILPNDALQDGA
Sequence of DDK (Hsk1-HA with Dfp1-myc) (O59836 whole entry, chain 2 of 2): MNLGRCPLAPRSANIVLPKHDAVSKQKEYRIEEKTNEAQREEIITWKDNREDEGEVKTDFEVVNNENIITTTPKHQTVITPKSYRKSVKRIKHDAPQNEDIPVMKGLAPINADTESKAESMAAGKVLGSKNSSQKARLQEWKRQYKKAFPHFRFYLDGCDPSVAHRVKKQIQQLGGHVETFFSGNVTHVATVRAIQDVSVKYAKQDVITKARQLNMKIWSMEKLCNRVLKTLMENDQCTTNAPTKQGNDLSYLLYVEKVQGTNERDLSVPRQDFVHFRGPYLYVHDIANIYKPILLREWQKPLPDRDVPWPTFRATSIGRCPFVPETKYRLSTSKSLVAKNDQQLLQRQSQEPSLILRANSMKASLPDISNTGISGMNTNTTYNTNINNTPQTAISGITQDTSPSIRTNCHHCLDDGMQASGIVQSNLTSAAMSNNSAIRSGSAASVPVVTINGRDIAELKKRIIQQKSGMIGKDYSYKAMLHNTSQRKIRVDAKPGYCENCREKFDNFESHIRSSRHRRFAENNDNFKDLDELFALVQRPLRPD

With B1, the binding result (in the experiment with Swi1-3FLAG; in experiment [1]) was “binds” each time.

B2: Swi3-3FLAG (natural protein, S. pombe, UniProt O14350 1-181, looked up)
chain: MSTAASDSGVEKLVEENKREEVKKNEEEKEFDLGLEENPDSVKKPRKRLAKFDEERLISENGIPKLRKMMRKVKLKGKGHEAKDLKQLLGMYHIWTHELYPRATFDDSISYLKTLGKHRSVKVRRRGWINEIAVENGSDSNASLFTGPSSNSLVNLTSGDPYVQDTADDAFVAQDNDTQLE
For the molecule B2, the binding result in experiment [2] is on record as “binds”.
